The record followed here is article PMC5067487.

Holding throughout (assay): ITC; peptide (100 uM stock in ddH2O) titrated into PadeB1 or variant (5-10 uM) in the sample cell; 50 mM Tris, 5 mM MgCl2, pH 8.0; 25 °C; One Set of Sites model; triplicate
In general terms: In ITC the heat of successive injections is recorded.

In assay [1] the target is PadeB1 (Paenibacillus dendritiformis C454).
For assay [2], the target named is PadeB1 N40A (Paenibacillus dendritiformis C454).
Assay [3] has as its target PadeB1 D79A (Paenibacillus dendritiformis C454).
Assay [4] addresses PadeB1 K28A (Paenibacillus dendritiformis C454).
Assay [5] concerns the target PadeB1 D23A (Paenibacillus dendritiformis C454).
The target of assay [6] is PadeB1 W49A (Paenibacillus dendritiformis C454).
Assay [7] concerns the target PadeB1 I61A (Paenibacillus dendritiformis C454).
Assay [8] has as its target PadeB1 Y38A (Paenibacillus dendritiformis C454).

The term Kd denotes the equilibrium constant for the complex coming apart. Low readings indicate a tighter complex, high ones a looser complex.

As for full-length precursor peptide GP-PadeA, in assay [1], the Kd turned out to be 4 nM.
Take leader peptide of PadeA: the equilibrium dissociation constant (Kd) in assay [2] came to 16 nM; in assay [3], 150 nM; in assay [4], 2.7 nM; in assay [5] it was 2.4 nM; in assay [6], 140 nM; in assay [7], 73 nM. In addition, the Kd was 6.2 nM in assay [8] and 5.3 nM in assay [1].
